Laboratory results taken from publication PMC6368601.

Molecular target: taxol-stabilized microtubules polymerized from bovine brain tubulin dimers (bovine) (UniProt Q6B856)
Experiment: co-sedimentation; 100 nM ISB (WT, MTBM or Δ20) with various concentrations of taxol-stabilized microtubules; BRB80, 1 mM DTT, 50 mM NaCl, 20 uM paclitaxel; 15 min at room temperature; 50% glycerol cushion, 279,000 x g; blot with anti-Borealin; apparent Kd from a one-site specific binding fit of three experiments

Substance	Kd
INCENP^1-58-Survivin-Borealin complex (ISB^WT), centromere-targeting region of human CPC (from UniProt Q9NQS7 1-58; O15392 1-142; Q53HL2 1-280)	0.164 µM
ISB^Δ20: INCENP^1-58-Survivin-Borealin lacking the N-terminal 20 amino acids of Borealin (from UniProt Q9NQS7 1-58; O15392 1-142; Q53HL2 21-280) (complex)	0.75 µM
